B1: leptin: recombinant leptin used as control and comparator in Example 5 (protein, UniProt P41160 22-167, looked up)
Leptin: VPIQKVQDDTKTLIKTIVTRINDISHTQSVSAKQRVTGLDFIPGLHPILSLSKMDQTLAVYQQVLTSLPSQNVLQIANDLENLRDLLHLLAFSKSCSLPQTSGLQKPESLDGVLEASLYSTEVVALSRLQGSLQDILQQLDVSPEC

Assays:
[1] = in situ brain perfusion; threshold definition of efficient transport; cited from earlier work
[2] = in situ perfusion assay in lean and diet-induced obese (DIO) mice; format: in vivo; settings: DIO mice compared with lean mice; FIG. 4A
Excerpt: Blood Flow Metab. 20(2):381-386.

ob/ob mice = test: body weight of ob/ob mice treated with recombinant leptin; format: in vivo; settings: 0.1 mg/mouse or 0.25 mg/mouse daily, FIG. 21
Procedure: As a control, we tested the ability of recombinant leptin to reduce body weight in ob/ob mice using either 0.1 mg/mouse or 0.25 mg/mouse daily.

Row | Molecule | transport across the BBB relative to that of Angiopep-1 (250 nM) [1] [%] | transport across the BBB in DIO mice versus lean mice [2] | body weight (ob/ob mice)
1 | T F F Y G G S R G K R N N F R T E E Y (TFFYGGSRGKRNNFRTEEY) [Angiopep-6] | 38.5 | – | –
2 | B1 | – | reduced as compared to in lean mice | reduce body weight in these mice in a dose-dependent manner
